Experimental data taken from US20160279215A1, “NOVEL PEPTIDES AND COMBINATION OF PEPTIDES FOR USE IN IMMUNOTHERAPY AGAINST VARIOUS TUMORS” (immatics biotechnologies GmbH, priority 2015, published 2016).

molecular target: T1, HLA-A*02:01 (human); assay: UV ligand-exchange ELISA (anti-b2m); ++ = exchange yield >=20%
T1 construct: MHC monomers captured on streptavidin plates; the UV-sensitive peptide is cleaved and exchanged with the test peptide; also called peptide-receptive MHC molecules; MHC class I
Text: Candidate peptides for T cell based therapies according to the present invention were further tested for their MHC binding capacity (affinity). The individual peptide-MHC complexes were produced by UV-ligand exchange, where a UV-sensitive peptide is cleaved upon UV-irradiation, and exchanged with the peptide of interest as analyzed. Only peptide candidates that can effectively bind and stabilize the peptide-receptive MHC molecules prevent dissociation of the MHC complexes. To determine the yield of the exchange reaction, an ELISA was performed based on the detection of the light chain (β2m) of stabilized MHC complexes. The assay was performed as generally described in Rodenko et al. (Rodenko et al., 2006).
96 well MAXISorp plates (NUNC) were coated over night with 2 ug/ml streptavidin in PBS at room temperature, washed 4× and blocked for 1 h at 37° C. in 2% BSA containing blocking buffer. Refolded HLA-A*02:01/MLA-001 monomers served as standards, covering the range of 15-500 ng/ml. Peptide-MHC monomers of the UV-exchange reaction were diluted 100 fold in blocking buffer. Samples were incubated for 1 h at 37° C., washed four times, incubated with 2 ug/ml HRP conjugated anti-β2m for 1 h at 37° C., washed again and detected with TMB solution that is stopped with […]. Absorption was measured at 450 nm. Candidate peptides that show a high exchange yield (preferably higher than 50%, most preferred higher than 75%) are generally preferred for a generation and production of antibodies or fragments thereof, and/or T cell receptors or fragments thereof, as they show sufficient avidity to the MHC molecules and prevent dissociation of the MHC complexes.

| peptide exchange yield | Binder |
| --- | --- |
| 20 to 50% | SLLNQPKAV |
| 20 to 50% | ALVEKGEFAL |
| 20 to 50% | FVMEGEPPKL |
| 20 to 50% | LLTGVFAQL |
| 20 to 50% | SVADLAHVL |
| 20 to 50% | VLGEEQEGV |
| 20 to 50% | ALYSGDLHAA |
| 20 to 50% | GLTEKTVLV |
| 20 to 50% | MTLSEIHAV |
| 20 to 50% | KLLEEVQLL |
| 20 to 50% | HLNNDRNPL |
| 20 to 50% | LDSEALLTL |
| 20 to 50% | QIADIVTSV |
| 20 to 50% | ALDSTIAHL |
| 20 to 50% | FLFVDPELV |
| 20 to 50% | AIIKEIQTV |

| peptide exchange yield | Binder |
| --- | --- |
| 20 to 50% | GLEERLYTA |
| 20 to 50% | IMLNSVEEI |
| 20 to 50% | VQSGLRILL |
| 20 to 50% | GVVPTIQKV (also called GWPTIQKV) |
| 20 to 50% | SLDKDIVAL |
| 20 to 50% | LKVLKADVVL |
| 20 to 50% | SILKEDPFL |
| 20 to 50% | KLIGNIHGNEV |
| 20 to 50% | NLLIDDKGTIKL |
| 20 to 50% | YLYELEHAL |
| 20 to 50% | HLQEKLQSL |
| 20 to 50% | FLLDKPQDL |
| 20 to 50% | TLYQGLPAEV |
| 20 to 50% | VLMDEGAVLTL |
| 20 to 50% | IKVTDPQLLEL |

Further lines, the binder ahead of its results:

| Binder | peptide exchange yield |
| --- | --- |
| DISKRIQSL | 20 to 50% |
| GLAEFQENV | 20 to 50% |
| GLAFLPASV | 20 to 50% |
| KVFELDLVTL | 20 to 50% |
| KQMSISTGL | 20 to 50% |
| HMSGKLTNV | 20 to 50% |
| NMADGQLHQV | 20 to 50% |
| TLLPSSGLVTL | 20 to 50% |
| ILTNKVVSV | 20 to 50% |
| TIGIPFPNV | 20 to 50% |
| AMFPDTIPRV | 20 to 50% |
| TLDSYLKAV (also called CYP4Z-001) | 20 to 50% |
| FIAAVVEKV | 20 to 50% |
| ALLEEEEGV (also called MAGEA4-003) | 20 to 50% |
| TLYPGRFDYV | 20 to 50% |
| TLHDQVHLL (also called ESR1-001) | 20 to 50% |
| AVPPPPSSV | 20 to 50% |
| VLQQESNFL | 20 to 50% |

| Binder | peptide exchange yield |
| --- | --- |
| LLLLDVPTA | 20 to 50% |
| KLMDPGSLPPL | 20 to 50% |
| SLYAGSNNQV | 20 to 50% |
| KMISAIPTL | 20 to 50% |
| SLYALHVKA | 20 to 50% |
| QLVQRVASV | 20 to 50% |
| ALGDKFLLRV | 20 to 50% |
| VIIKGLEEI | 20 to 50% |
| SLNKQIETV | 20 to 50% |
| LLLESDPKVYSL | 20 to 50% |
| SLMEKNQSL | 20 to 50% |
| VLSTRVTNV | 20 to 50% |
| TLDRNSLYV | 20 to 50% |
| QIVELIEKI | 20 to 50% |
| ALSTVTPRI | 20 to 50% |
| ILQDGQFLV (also called DCAF4L2-001) | 20 to 50% |
| KTASINQNV | 20 to 50% |
| SLSEKSPEV | 20 to 50% |
